In the supplement of paper PMC10567573:

B1: C22orf15 (parent)
chain: RGRHEQSPTSRPRKVSSLPPRSC

Variants of: B1
Assay: protein stability index of a GFP-peptide fusion (GPS, HEK-293T) (PSI 1-6); higher = more stable
Details: c terminus: native
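Note: lentivirally expressed fusions sorted by FACS into six bins by GFP to DsRed ratio, PSI derived from sequencing read proportions per bin multiplied by bin number.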

Question: Which protein stability index does the source give for RGRHEWSPTSRPRKVSSLPPRSC here?
Answer: 4.38

Question: Which protein stability index does the source give for RGRHEYSPTSRPRKVSSLPPRSC here?
Answer: 2.05

Question: For RGRHEQDPTSRPRKVSSLPPRSC, which protein stability index is on record?
Answer: 2.76

Question: Which protein stability index does the source give for RGRHEQFPTSRPRKVSSLPPRSC here?
Answer: 2.94

Question: With RGRHEQNPTSRPRKVSSLPPRSC as the variant, how does the protein stability index read?
Answer: 2.44

Question: Which protein stability index does the source give for RGRHEQRPTSRPRKVSSLPPRSC here?
Answer: 2.69

Question: For RGRHEQVPTSRPRKVSSLPPRSC, which protein stability index is on record?
Answer: 3.68

Question: Which protein stability index does the source give for RGRHEQYPTSRPRKVSSLPPRSC here?
Answer: 2.32

Question: With RGRHEQSCTSRPRKVSSLPPRSC as the variant, how does the protein stability index read?
Answer: 3.78

Question: For RGRHEQSGTSRPRKVSSLPPRSC, which protein stability index is on record?
Answer: 2.55

Question: For RGRHEQSHTSRPRKVSSLPPRSC, which protein stability index is on record?
Answer: 3.48

Question: Which protein stability index does the source give for RGRHEQSKTSRPRKVSSLPPRSC here?
Answer: 3.28

Question: For RGRHEQSNTSRPRKVSSLPPRSC, which protein stability index is on record?
Answer: 2.71

Question: Which protein stability index does the source give for RGRHEQSQTSRPRKVSSLPPRSC here?
Answer: 2.65

Question: With RGRHEQSRTSRPRKVSSLPPRSC as the variant, how does the protein stability index read?
Answer: 4.11

Question: Which protein stability index does the source give for RGRHEQSPASRPRKVSSLPPRSC here?
Answer: 3.73

Question: Which protein stability index does the source give for RGRHEQSPCSRPRKVSSLPPRSC here?
Answer: 1.52

Question: With RGRHEQSPGSRPRKVSSLPPRSC as the variant, how does the protein stability index read?
Answer: 2.07

Question: With RGRHEQSPHSRPRKVSSLPPRSC as the variant, how does the protein stability index read?
Answer: 1.83

Question: With RGRHEQSPKSRPRKVSSLPPRSC as the variant, how does the protein stability index read?
Answer: 2.44

Question: Which protein stability index does the source give for RGRHEQSPRSRPRKVSSLPPRSC here?
Answer: 3.3

Question: With RGRHEQSPSSRPRKVSSLPPRSC as the variant, how does the protein stability index read?
Answer: 2.58

Question: With RGRHEQSPYSRPRKVSSLPPRSC as the variant, how does the protein stability index read?
Answer: 2.35

Question: Which protein stability index does the source give for RGRHEQSPTARPRKVSSLPPRSC here?
Answer: 1.64

Question: Which protein stability index does the source give for RGRHEQSPTCRPRKVSSLPPRSC here?
Answer: 2.51

Question: Which protein stability index does the source give for RGRHEQSPTDRPRKVSSLPPRSC here?
Answer: 1.09

Question: Which protein stability index does the source give for RGRHEQSPTFRPRKVSSLPPRSC here?
Answer: 1.99

Question: For RGRHEQSPTHRPRKVSSLPPRSC, which protein stability index is on record?
Answer: 1.87

Question: Which protein stability index does the source give for RGRHEQSPTKRPRKVSSLPPRSC here?
Answer: 1.93

Question: Which protein stability index does the source give for RGRHEQSPTPRPRKVSSLPPRSC here?
Answer: 1.61

Question: With RGRHEQSPTRRPRKVSSLPPRSC as the variant, how does the protein stability index read?
Answer: 1.8

Question: For RGRHEQSPTTRPRKVSSLPPRSC, which protein stability index is on record?
Answer: 2.83

Question: Which protein stability index does the source give for RGRHEQSPTVRPRKVSSLPPRSC here?
Answer: 2.85

Question: With RGRHEQSPTSAPRKVSSLPPRSC as the variant, how does the protein stability index read?
Answer: 2.33

Question: Which protein stability index does the source give for RGRHEQSPTSGPRKVSSLPPRSC here?
Answer: 2.87

Question: With RGRHEQSPTSKPRKVSSLPPRSC as the variant, how does the protein stability index read?
Answer: 3.4

Question: With RGRHEQSPTSNPRKVSSLPPRSC as the variant, how does the protein stability index read?
Answer: 2.35

Question: For RGRHEQSPTSPPRKVSSLPPRSC, which protein stability index is on record?
Answer: 3.98

Question: With RGRHEQSPTSQPRKVSSLPPRSC as the variant, how does the protein stability index read?
Answer: 3.32

Question: With RGRHEQSPTSSPRKVSSLPPRSC as the variant, how does the protein stability index read?
Answer: 2.31

Question: For RGRHEQSPTSTPRKVSSLPPRSC, which protein stability index is on record?
Answer: 2.51

Question: For RGRHEQSPTSWPRKVSSLPPRSC, which protein stability index is on record?
Answer: 5

Question: Which protein stability index does the source give for RGRHEQSPTSRDRKVSSLPPRSC here?
Answer: 2.8

Question: With RGRHEQSPTSRGRKVSSLPPRSC as the variant, how does the protein stability index read?
Answer: 1.4

Question: With RGRHEQSPTSRHRKVSSLPPRSC as the variant, how does the protein stability index read?
Answer: 2.55

Question: For RGRHEQSPTSRMRKVSSLPPRSC, which protein stability index is on record?
Answer: 1.89

Question: Which protein stability index does the source give for RGRHEQSPTSRQRKVSSLPPRSC here?
Answer: 3.88

Question: Which protein stability index does the source give for RGRHEQSPTSRTRKVSSLPPRSC here?
Answer: 2.55

Question: For RGRHEQSPTSRWRKVSSLPPRSC, which protein stability index is on record?
Answer: 2.55

Question: Which protein stability index does the source give for RGRHEQSPTSRYRKVSSLPPRSC here?
Answer: 3.13

Question: With RGRHEQSPTSRPCKVSSLPPRSC as the variant, how does the protein stability index read?
Answer: 3.56

Question: Which protein stability index does the source give for RGRHEQSPTSRPDKVSSLPPRSC here?
Answer: 4.32

Question: With RGRHEQSPTSRPEKVSSLPPRSC as the variant, how does the protein stability index read?
Answer: 2.88

Question: For RGRHEQSPTSRPFKVSSLPPRSC, which protein stability index is on record?
Answer: 2.43

Question: For RGRHEQSPTSRPHKVSSLPPRSC, which protein stability index is on record?
Answer: 3.08

Question: For RGRHEQSPTSRPLKVSSLPPRSC, which protein stability index is on record?
Answer: 3.56

Question: Which protein stability index does the source give for RGRHEQSPTSRPMKVSSLPPRSC here?
Answer: 3.68

Question: With RGRHEQSPTSRPQKVSSLPPRSC as the variant, how does the protein stability index read?
Answer: 1.47

Question: Which protein stability index does the source give for RGRHEQSPTSRPSKVSSLPPRSC here?
Answer: 2.15

Question: Which protein stability index does the source give for RGRHEQSPTSRPTKVSSLPPRSC here?
Answer: 2.73

Question: Which protein stability index does the source give for RGRHEQSPTSRPWKVSSLPPRSC here?
Answer: 1.54

Question: For RGRHEQSPTSRPYKVSSLPPRSC, which protein stability index is on record?
Answer: 1.49

Question: For RGRHEQSPTSRPRDVSSLPPRSC, which protein stability index is on record?
Answer: 3.71

Question: With RGRHEQSPTSRPREVSSLPPRSC as the variant, how does the protein stability index read?
Answer: 3.42

Question: For RGRHEQSPTSRPRFVSSLPPRSC, which protein stability index is on record?
Answer: 3.52

Question: Which protein stability index does the source give for RGRHEQSPTSRPRGVSSLPPRSC here?
Answer: 3.13

Question: For RGRHEQSPTSRPRIVSSLPPRSC, which protein stability index is on record?
Answer: 2.67

Question: With RGRHEQSPTSRPRNVSSLPPRSC as the variant, how does the protein stability index read?
Answer: 1.24

Question: With RGRHEQSPTSRPRQVSSLPPRSC as the variant, how does the protein stability index read?
Answer: 4.04

Question: Which protein stability index does the source give for RGRHEQSPTSRPRTVSSLPPRSC here?
Answer: 4.73

Question: Which protein stability index does the source give for RGRHEQSPTSRPRVVSSLPPRSC here?
Answer: 3.29

Question: Which protein stability index does the source give for RGRHEQSPTSRPRWVSSLPPRSC here?
Answer: 1.93

Question: For RGRHEQSPTSRPRYVSSLPPRSC, which protein stability index is on record?
Answer: 2.54

Question: For RGRHEQSPTSRPRKCSSLPPRSC, which protein stability index is on record?
Answer: 2.52

Question: For RGRHEQSPTSRPRKDSSLPPRSC, which protein stability index is on record?
Answer: 1.97

Question: With RGRHEQSPTSRPRKFSSLPPRSC as the variant, how does the protein stability index read?
Answer: 3.96

Question: Which protein stability index does the source give for RGRHEQSPTSRPRKGSSLPPRSC here?
Answer: 2.29

Question: With RGRHEQSPTSRPRKHSSLPPRSC as the variant, how does the protein stability index read?
Answer: 4.12

Question: With RGRHEQSPTSRPRKKSSLPPRSC as the variant, how does the protein stability index read?
Answer: 3.42

Question: For RGRHEQSPTSRPRKLSSLPPRSC, which protein stability index is on record?
Answer: 3.74

Question: Which protein stability index does the source give for RGRHEQSPTSRPRKNSSLPPRSC here?
Answer: 2.71

Question: With RGRHEQSPTSRPRKPSSLPPRSC as the variant, how does the protein stability index read?
Answer: 4.67

Question: With RGRHEQSPTSRPRKQSSLPPRSC as the variant, how does the protein stability index read?
Answer: 2.22

Question: With RGRHEQSPTSRPRKRSSLPPRSC as the variant, how does the protein stability index read?
Answer: 2.8

Question: Which protein stability index does the source give for RGRHEQSPTSRPRKSSSLPPRSC here?
Answer: 2.1

Question: With RGRHEQSPTSRPRKTSSLPPRSC as the variant, how does the protein stability index read?
Answer: 1.82

Question: Which protein stability index does the source give for RGRHEQSPTSRPRKVASLPPRSC here?
Answer: 1.95

Question: Which protein stability index does the source give for RGRHEQSPTSRPRKVDSLPPRSC here?
Answer: 2.87

Question: For RGRHEQSPTSRPRKVFSLPPRSC, which protein stability index is on record?
Answer: 3.32

Question: For RGRHEQSPTSRPRKVHSLPPRSC, which protein stability index is on record?
Answer: 2.57

Question: For RGRHEQSPTSRPRKVISLPPRSC, which protein stability index is on record?
Answer: 1.98

Question: With RGRHEQSPTSRPRKVKSLPPRSC as the variant, how does the protein stability index read?
Answer: 2.94

Question: With RGRHEQSPTSRPRKVMSLPPRSC as the variant, how does the protein stability index read?
Answer: 2.63

Question: Which protein stability index does the source give for RGRHEQSPTSRPRKVNSLPPRSC here?
Answer: 2.53

Question: Which protein stability index does the source give for RGRHEQSPTSRPRKVPSLPPRSC here?
Answer: 2.77

Question: Which protein stability index does the source give for RGRHEQSPTSRPRKVQSLPPRSC here?
Answer: 2.92

Question: With RGRHEQSPTSRPRKVTSLPPRSC as the variant, how does the protein stability index read?
Answer: 2.07
